Results on 1 substance are retold here after paper doi:10.1101/2025.04.25.650293.

In this assay the target is ELMSAN1 (human (endogenous in 143B)) (UniProt Q6PJG2). Kind of assay: affinity purification with mass spectrometry.

A value given as a limit tells only on which side of the number the result lay.

Sequence of UniProt Q6PJG2 (Q6PJG2 whole entry): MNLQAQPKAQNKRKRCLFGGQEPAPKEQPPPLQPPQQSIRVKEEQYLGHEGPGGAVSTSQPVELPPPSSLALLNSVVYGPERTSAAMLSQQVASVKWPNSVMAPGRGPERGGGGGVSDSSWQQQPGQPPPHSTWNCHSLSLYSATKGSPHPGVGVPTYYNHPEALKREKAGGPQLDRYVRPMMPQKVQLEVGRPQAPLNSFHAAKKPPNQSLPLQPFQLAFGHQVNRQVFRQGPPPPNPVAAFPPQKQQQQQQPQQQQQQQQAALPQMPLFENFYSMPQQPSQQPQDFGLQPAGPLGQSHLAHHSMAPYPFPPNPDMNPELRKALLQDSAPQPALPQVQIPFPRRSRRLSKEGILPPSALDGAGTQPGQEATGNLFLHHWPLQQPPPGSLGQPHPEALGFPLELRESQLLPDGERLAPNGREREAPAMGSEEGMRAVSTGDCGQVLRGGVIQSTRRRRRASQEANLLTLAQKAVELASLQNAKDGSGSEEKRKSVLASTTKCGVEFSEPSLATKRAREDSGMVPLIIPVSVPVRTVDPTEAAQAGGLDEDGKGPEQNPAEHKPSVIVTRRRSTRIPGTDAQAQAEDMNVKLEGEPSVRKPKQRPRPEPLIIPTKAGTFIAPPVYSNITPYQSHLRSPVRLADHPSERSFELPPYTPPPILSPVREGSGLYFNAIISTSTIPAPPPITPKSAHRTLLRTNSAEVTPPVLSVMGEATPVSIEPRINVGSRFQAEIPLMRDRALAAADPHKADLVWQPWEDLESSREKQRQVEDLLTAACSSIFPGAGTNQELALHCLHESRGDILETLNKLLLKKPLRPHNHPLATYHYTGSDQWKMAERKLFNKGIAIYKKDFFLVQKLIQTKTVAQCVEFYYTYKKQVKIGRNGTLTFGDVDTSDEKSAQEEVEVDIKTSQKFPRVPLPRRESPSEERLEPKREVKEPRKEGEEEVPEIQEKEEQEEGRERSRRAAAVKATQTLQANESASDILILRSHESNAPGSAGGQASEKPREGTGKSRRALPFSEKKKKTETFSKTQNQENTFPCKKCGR

In turn, “PDHX (from UniProt O00330 54-501) (natural protein)” yielded a fold decrease in binding with ISX9 against DMSO above 100 fold.
